The chains are these.
B2: CD59 (immobilized for SPR) (receptor)
chain: LQCYNCPNPTADCKTAVNCSSDFDACLITKAGLQVYNKCWKFEHCNFNDVTTRLRENELTYYCCKKDLCNFNEQLEN

Bridge positions count the residues as written; N and C are the ends. Square brackets hold non-standard residues; d marks the D form. Ends that are not written are not given here.

Targets include rILYd4 (Streptococcus intermedius, UniProt Q9LCB8 1-532); CP-03; CP-02; CP-13 (N-terminal Ac-D-Tyr cyclized to a C-terminal Cys (thioether macrocycle)); CP-04.
Assay in all cases: SPR
Assay [1] has as its target B2.
Assay [2] addresses B2.

The record followed here is article PMC12207370 (2025).

Broadly, the koff is the rate constant with which the complex falls apart. Lower therefore signals slow dissociation. A word on the Kd: it is the equilibrium constant for the complex coming apart.

B1: CP-06 (peptide)
chain: {CH2CO}-[dY]SWTWGNRSSVRGC
modifications: thioether N-14
Consider B1, for which the dissociation rate constant (koff) in assay [1] came to 0.0204 s⁻¹. Binding in assay [2] was characterised by a dissociation constant (Kd) of 11.3 nM.
B2: the Kd with rILYd4 worked out at 48.3 nM; with CP-03 it was 23.4 nM; in the assay with CP-02 it was 15.3 nM; in the assay with CP-13, 10.8 nM; in the assay with CP-04, 11.9 nM.
